Laboratory results taken from patent US8008547B2, “Glyphosate-N-acetyltransferase (GAT) genes” (E.I. duPont de Nemours, priority 2000, dated 2011).

Test: Standard protocol for determination of kcat and KM (continuous spectrophotometric assay, Acetyl CoA hydrolysis at 235 nm)
Assay type: biochemical
Conditions: purified protein, about 23° C., 0.2 mM acetyl CoA; for Kcat: 20 mM HEPES pH 6.8, 10% ethylene glycol; for Km: pH 6.8, glyphosate 0.125 to 10 mM
Summary of the method: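 KM from initial rates over 0.125–10 mM glyphosate, fitted by Lineweaver-Burke transformation of Michaelis-Menten; kcat/KM computed as kcat divided by KM. Continuous spectrophotometric read of acetyl-CoA hydrolysis at 235 nm.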

B1: SEQ ID NO: 436: GAT polypeptide (protein)
chain: MIEVKPINAEDTYEIRHRILRPNQPLEACMYETDLLGGTFHLGGYYQGKLISIASFHNAEHSELEGQKQYQLRGMATLEGYREQKAGSTLIRHAEELLRKKGADLLWCNARTSVSGYYEKLGFSEQGEVYDIPPVGPHILMYKKLA
modifications: 9C6
notes: GAT polypeptide
B1 showed a Kcat of 0.217 s⁻¹ and a Km of 2500 µM.

B2: SEQ ID NO: 437: GAT polypeptide (protein)
chain: MIEVKPINAEDTYEIRHRILRPNQPLEACKYETDLLGGTFHLGGYYRGKLISIASFHKAEHSELEGEEQYQLRGMATLEGYREQKAGSTLIRHAEELLRKKGADLLWCNARTSVSGYYKKLGFSEQGEVYDIPPIGPHILMYKKLT
modifications: 9H11
notes: GAT polypeptide
For B2, the Kcat was 0.067 s⁻¹ and the Km was 2300 µM.

B3: SEQ ID NO: 274: GAT polypeptide (protein)
chain: MIEVKPINAEDTYEIRHRILRPNQPLEACKYETDLLGGTFHLGGYYRGKLVSIASFHQAEHPELEGRKQYQLRGMATLEGYREQKAGSTLIRHAEELLRKKGADLLWCNARTSASGYYKKLGFSEQGEVYDIPPTGPHILMYKKLT
modifications: 10_1H3
notes: GAT polypeptide
Molecule B3 has a Kcat of 1.27 s⁻¹ and a Km of 1900 µM.

B4: SEQ ID NO: 275: GAT polypeptide (protein)
chain: MIEVKPINAEDTYEIRHRILRPNQPLEACMYETDLLGGTLHLGGYYRGKLISIASFHQAEHPELEGQKQYQLRGMATLEEYREQKAGSTLIRHAEELLRKKGADLLWCNARTSASGYYKKLGFSEQGGVYDIPPVGPHILMYKKLT
modifications: 10_20D10
notes: GAT polypeptide
With B4 the Kcat was 1.44 s⁻¹ and the Km was 1600 µM.

B5: SEQ ID NO: 276: GAT polypeptide (protein)
chain: MIEVKPINAEDTYEIRHRILRPNQPLEACMYETDLLGGTFHLGGYYRGKLVSIASFHQAEHPELEGQKQYQLRGMATLEGYREQKAGSTLIRHAEELLRKKGADLLWCNARTSASGYYKKLGFSEQGEVYDTPPVGPHILMYKKLT
modifications: 10_23F2
notes: GAT polypeptide
Work on B5 yielded a Kcat of 1.688 s⁻¹ and a Km of 900 µM.

B6: SEQ ID NO: 440: GAT polypeptide (protein)
chain: MLEVKPINAEDTYELRHRILRPNQPIEACMYETDLLRGAFHLGGFYRGKLISIASFHQAEHSELQGQKQYQLRGMATLEGYRDQKAGSSLIKHAEQLLRKRGADLLWCNARTSASGYYKKLGFSEQGEVFDTPPVGPHILMYKRIT
modifications: 0_5B3
notes: GAT polypeptide
In the case of B6, the Kcat is reported as 2.38 s⁻¹ and the Km is reported as 390 µM.

B7: SEQ ID NO: 446: GAT polypeptide (protein)
chain: MIEVKPINAEETYELRHRILRPNQPIEACMYETDLLRGAFHLGGFYRGKLISIASFHQAEHSELEGQKQYQLRGMATLEGYRDQKAGSSLIRHAEQLLRKKGANMLWCNARTTASGYYKKLGFSEQGEIFDTPPVGPHILMYKRIT
modifications: 0_5D7
notes: GAT polypeptide
With B7 the Kcat was 4.07 s⁻¹ and the Km was 1100 µM.

B8: SEQ ID NO: 447: GAT polypeptide (protein)
chain: MLEVKPINAEDTYELRHRILRPNQPIEACMYESDLLRGALHLGGFYRGKLISIASFHQAEHSDLQGQKQYQLRGMATLEGFRDQKAGSSLIRHAEQILRKRGADLLWCNARTSASGYYKKLGFSEQGKVFDTPPVGPHILMYKRIT
modifications: 0_6B4
notes: GAT polypeptide
B8 gave a Kcat of 4.2 s⁻¹ and a Km of 800 µM.

B9: SEQ ID NO: 449: GAT polypeptide (protein)
chain: MIEVKPINAEDTYELRHRILRPNQPIEACMYESDLLRGAFHLGGYYRGKLISIASFHQAEHSDLQGQKQYQLRGMATLEGFRDQKAGSSLIRHAEQILRKRGADLLWCNARTSASGYYKKLGFSEQGEVFETPPVGPHILMYKRIT
modifications: 0_6D11
notes: GAT polypeptide
B9 gave a Kcat of 3.53 s⁻¹ and a Km of 440 µM.

B10: SEQ ID NO: 443: GAT polypeptide (protein)
chain: MIEVKPINAEDTYELRHKILRPNQPLEACMYETDLLRGAFHLGGFYRGKLISIASFHQAEHSGLQGQKQYQLRGMATLEGYREQKAGSSIIKHAEEILRKKGADLLWCNARTSASGYYKKLGFSEQGEIFDTPPVGPHILMYKRIT
modifications: 0_5C4
notes: GAT polypeptide
Molecule B10 has a Kcat of 3.42 s⁻¹ and a Km of 670 µM.

B11: SEQ ID NO: 441: GAT polypeptide (protein)
chain: MLEVKLINAEDTYELRHRILRPNQPLEACMYETDLLRGAFHLGGFYRGKLISIASFHQAEHSDLEGQKQYQLRGMATLEGFRDQKAGSSLIKHAEEILRKRGANLLWCNARTSASGYYKKLGFSEQGEVFDTPPVGPHILMYKRIT
modifications: 0_5B4
notes: GAT polypeptide
For B11, the Kcat was 3 s⁻¹ and the Km was 600 µM.

B12: SEQ ID NO: 453: GAT polypeptide (protein)
chain: MIEVKPINAEDTYELRHRILRPNQPIEVCMYETDLLRGAFHLGGFYRGKLISIASFHQAEHSDLQGQKQYQLRGMATLEGYREQKAGSTLIRHAEQILRKRGADLLWCNARTSASGYYKKLGFSEQGEVFDTPPVGPHILMYKRIT
modifications: 10_4D5
notes: GAT polypeptide
B12 showed a Kcat of 1.379 s⁻¹.

B13: SEQ ID NO: 455: GAT polypeptide (protein)
chain: MIEVKPINAEDTYELRHRILRPNQPIEVCMYETDLLRGAFHLGGFYRGKLISIASFHQAEHSELQGQKQYQLRGMATLEGFREQKAGSSLIRHAEQILRKRGADLLWCNARTSASGYYKKLGFSEQGEIFDTPPVGPHILMYKRLT
modifications: 10_4F9
notes: GAT polypeptide
B13 showed a Kcat of 0.9232 s⁻¹.

B14: SEQ ID NO: 438: GAT polypeptide (protein)
chain: MIEVKPINAEDTYELRHKILRPNQPIEACMYESDLLRGAFHLGGFYRGKLISIASFHQAEHSDLEGQKQYQLRGMATLEGYRDQKAGSTLIKHAEEILRKRGADMLWCNARTTASGYYKKLGFSEQGEIFDTPPVGPHILMYKRLT
modifications: 0_4B10
notes: GAT polypeptide
B14 showed a Kcat of 3.17 s⁻¹ and a Km of 680 µM.

B15: SEQ ID NO: 451: GAT polypeptide (protein)
chain: MIEVKPINAEDTYELRHKILRPNQPIEACMYETDLLRGAFHLGGFYGGKLISIASFHQAEHSDLEGQKQYQLRGMATLEGYREQKAGSTLIRHAEEILRKKGANLLWCNARTSASGYYKKLGFSEQGEVFDTPPVGPHILMYKRLT
modifications: 0_6H9
notes: GAT polypeptide
B15 gave a Kcat of 3.8 s⁻¹ and a Km of 470 µM.

B16: SEQ ID NO: 452: GAT polypeptide (protein)
chain: MIEVKPINAEDTYELRHKILRPNQPLEVCMYETDLLRGAFHLGGXYRGKLISIASFHQAEHSELQGQKQYQLRGMATLEGYRDQKAGSSLIKHAEQILRKRGADXLWCNARTSASGYYKKLGFSEQGEIFDTPPVGPHILMYKRLT
modifications: X: residue not identified in the source; ends and bridges not checked
notes: GAT polypeptide
For B16, the Kcat was 1.16 s⁻¹.

B17: SEQ ID NO: 439: GAT polypeptide (protein)
chain: MIEVKPINAEDTYELRHKILRPNQPIEACMYESDLLRGAFHLGGFYGGKLISIASFHQAEHSDLEGQKQYQLRGMATLEGYRDQKAGSTLIKHAEQLLRKRGADMLWCNARTSASGYYKKLGFSEQGEVFETPPVGPHILMYKKIT
modifications: 0_5B11
notes: GAT polypeptide
B17 showed a Kcat of 3.65 s⁻¹ and a Km of 540 µM.

B18: SEQ ID NO: 458: GAT polypeptide (protein)
chain: MIEVKPINAEDTYELRHKILRPNQPIEVCMYESDLLRGAFHLGGFYRGKLISIASFHQAEHPDLQGQKQYQLRGMATLEGYRDQKAGSSLIKHAEQILRKRGADLLWCNARTSASGYYKKLGFSEQGEVFETPPVGPHILMYKRLT
modifications: 11_3A11
notes: GAT polypeptide
Work on B18 yielded a Kcat of 0.9277 s⁻¹.

B19: SEQ ID NO: 456: GAT polypeptide (protein)
chain: MIEVKPINAEDTYELRHRILRPNQPIEACMFESDLLRGAFHLGGYYRGKLISIASFHQAEHSDLQGQKQYQLRGMATLEGYRDQKAGSSLIRHAEQILRKRGADLLWCNARTSASGYYKKLGFSEQGEIFDTPPVGPHILMYKRLT
modifications: 10_4G5
notes: GAT polypeptide
With B19 the Kcat was 2.9442 s⁻¹ and the Km was 580 µM.

B20: SEQ ID NO: 442: GAT polypeptide (protein)
chain: MIEVKPINAEDTYELRHKILRPNQPIEACMYESDLLRGAFHLGGFYRGKLISIASFHQAEHSDLQGQKQYQLRGMATLEGYRDQKAGSSLIRHAEQILRKRGADLLWCNARTSASGYYKKLGFSEQGEIFDTPPVGPHILMYKRLT
modifications: 0_5B8
notes: GAT polypeptide
For B20, the Kcat was 2.38 s⁻¹ and the Km was 270 µM.

B21: SEQ ID NO: 454: GAT polypeptide (protein)
chain: MLEVKPINAEDTYELRHRILRPNQPIEACMFESDLLRGAFHLGGFYRGKLISIASFHQAEHSELQGQKQYQLRGMATLEGYREQKAGSSLIRHAEEILRKRGADMLWCNARTSASGYYKKLGFSEQGEIFETPPVGPHILMYKRLT
modifications: 10_4F2
notes: GAT polypeptide
B21 showed a Kcat of 3.8507 s⁻¹ and a Km of 200 µM.

B22: SEQ ID NO: 450: GAT polypeptide (protein)
chain: MIEVKPINAEDTYELRHRILRPNQPIEACMYESDLLRGAFHLGGYYRGKLISIASFHQAEHSELQGQKQYQLRGMATLEGFREQKAGSTLIRHAEQILRKRGADMLWCNARTSASGYYKKLGFSEQGEIFDTPPVGPHILMYKRIT
modifications: 0_6F2
notes: GAT polypeptide
For B22, the Kcat was 2.92 s⁻¹ and the Km was 340 µM.

B23: SEQ ID NO: 444: GAT polypeptide (protein)
chain: MIEVKPINAEDTYELRHRILRPNQPIEACMYESDLLRGAFHLGGFYRGKLISIASFHQAEHSDLQGQKQYQLRGMATLEGYREQKAGSTLIRHAEQLLRKRGADLLWCNARTSASGYYKRLGFSEQGEVFDTPPVGPHILMYKRLT
modifications: 0_5D11
notes: GAT polypeptide
Work on B23 yielded a Kcat of 3.73 s⁻¹ and a Km of 670 µM.
